Results on 30 molecules are retold here after patent US20030148958A1 (PROCTER AND GAMBLE, published 2003).

One assay addresses T1, CRF2R.
T1 sequence (Q13324 whole entry, species assumed, looked up): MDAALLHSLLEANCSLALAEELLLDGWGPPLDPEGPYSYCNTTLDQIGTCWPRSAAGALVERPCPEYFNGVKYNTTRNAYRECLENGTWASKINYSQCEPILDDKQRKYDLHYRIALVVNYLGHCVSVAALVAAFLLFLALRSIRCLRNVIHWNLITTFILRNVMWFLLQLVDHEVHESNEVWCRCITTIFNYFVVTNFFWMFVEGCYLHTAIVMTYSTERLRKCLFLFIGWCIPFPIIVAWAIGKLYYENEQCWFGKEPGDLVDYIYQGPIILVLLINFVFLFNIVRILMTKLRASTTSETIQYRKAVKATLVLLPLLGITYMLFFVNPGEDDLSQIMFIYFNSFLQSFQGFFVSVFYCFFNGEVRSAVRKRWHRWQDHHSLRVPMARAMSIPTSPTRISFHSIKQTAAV
Kind of assay: cell-based or functional assay.

The target in another assay is CRF1R. The experiment in a line: cell-based or functional assay.

Ends that are not written are not given here.
Throughout, for CRF1R Emax %: reference of the scale not given here.
Throughout, for CRF2R Emax %: reference of the scale not given here.

DNPSLSIDVPLFLLRTLLELEKTQSQRERAEQNARIFARV-NH2 [SEQ ID NO 385]: in the assay with CRF2R, the “CRF2R EC50” value worked out at 10.2 nM and the “CRF2R Emax %” value is 100%. Moreover, in the assay with CRF1R, the “CRF1R EC50” value was 1000 nM and the “CRF1R Emax %” value turned out to be 46%.
The matching figures for ZGPPISIDLPHQLLRKMIEIEKQEKEKQQAANNRLLLDTI (C-terminal amide) [SEQ ID NO 212]: 21.3 nM, 100%, 445 nM and 100%.
For ZGPPISIDLPQFLLRKMIEIEKQEKEKQQAANNRLLLDTI (C-terminal amide) [SEQ ID NO 221], in that order: 8.5 nM, 100%, 236 nM and 100%.
Turning to ZGPPISIDLPTYLLRKMIEIEKQEKEKQQAANNALLLATI (C-terminal amide) [SEQ ID NO 233], in the assay with CRF2R, the “CRF2R EC50” value worked out at 46.1 nM and the “CRF2R Emax %” value amounted to 95%. Moreover, in the assay with CRF1R, the “CRF1R EC50” value is 1000 nM and the “CRF1R Emax %” value came to 11%.
Take ZGPPISIDLPWWLLRKMIEIEKQEKEKQQAANNRLLLDTI (C-terminal amide) [SEQ ID NO 216]: in the assay with CRF2R, the “CRF2R EC50” value came out at 9.9 nM and the “CRF2R Emax %” value came out at 90%. For the same molecule, in the assay with CRF1R, the “CRF1R EC50” value stood at 49.8 nM and the “CRF1R Emax %” value was found to be 98%.
As for ZGPPISIDLPLWLLRKMIEIEKQEKEKQQAANNRLLLDTI (C-terminal amide) [SEQ ID NO 218], in the assay with CRF2R, the “CRF2R EC50” value was 4.8 nM and the “CRF2R Emax %” value is 96%. In addition, in the assay with CRF1R, the “CRF1R EC50” value was determined as 98.4 nM and the “CRF1R Emax %” value came to 100%.
For ZGPPISIDLPIYLLRKMIEIEKQEKEKQQAANNALLLDTI (C-terminal amide) [SEQ ID NO 236], in that order: 40.4 nM, 97%, 1000 nM and 15%.
With ZGPPISIDLPYYLLRKMIEIEKQEKEKQQAANNALLLATI (C-terminal amide) [SEQ ID NO 225], in the assay with CRF2R, the “CRF2R EC50” value came out at 4.8 nM and the “CRF2R Emax %” value turned out to be 89%. In addition, in the assay with CRF1R, the “CRF1R EC50” value was 220 nM and the “CRF1R Emax %” value stood at 97%.
For ZGPPISIDLPYWLLRKMIEIEKQEKEKQQAANNRLLLDTI (C-terminal amide) [SEQ ID NO 215], in that order: 4 nM, 100%, 188 nM and 100%.
ZGPPISIDLPHFLLRKMIEIEKQEKEKQQAANNRLLLDTI (C-terminal amide) [SEQ ID NO 219]: in the assay with CRF2R, the “CRF2R EC50” value came to 7.8 nM and the “CRF2R Emax %” value worked out at 98%. Besides, in the assay with CRF1R, the “CRF1R EC50” value amounted to 80.9 nM and the “CRF1R Emax %” value is 100%.
On to ZGPPISIDLPYFLLRKMIEIEKQEKEKQQAANNRLLLDTI (C-terminal amide) [SEQ ID NO 220], for which, in the assay with CRF2R, the “CRF2R EC50” value was 4.1 nM and the “CRF2R Emax %” value was found to be 98%. Also, in the assay with CRF1R, the “CRF1R EC50” value is 63.6 nM and the “CRF1R Emax %” value was determined as 81%.
With ZGPPISIDLPFFLLRKMIEIEKQEKEKQQAANNRLLLDTI (C-terminal amide) [SEQ ID NO 223], in the assay with CRF2R, the “CRF2R EC50” value stood at 3 nM and the “CRF2R Emax %” value was found to be 92%. Besides, in the assay with CRF1R, the “CRF1R EC50” value is 48.1 nM and the “CRF1R Emax %” value is 81%.
For ZGPPISIDLPLELLRKMIEIEKQEKEKQQAANNALLLDTI (C-terminal amide) [SEQ ID NO 235], in that order: 25.7 nM, 100%, 806 nM and 70%.
The matching figures for ZGPPISIDLPFYLLRKMIEIEKQEKEKQQAANNALLLDTI (C-terminal amide) [SEQ ID NO 230]: 8.1 nM, 100%, 219 nM and 100%.
For ZGPPISIDLPLELLRKMIEIEKQEKEKQQAANNALLLATI (C-terminal amide) [SEQ ID NO 234], in that order: 20.6 nM, 100%, 434 nM and 96%.
For ZGPPISIDLPIYLLRKMIEIEKQEKEKQQAANNALLLATI (C-terminal amide) [SEQ ID NO 237], in the assay with CRF2R, the “CRF2R EC50” value turned out to be 22.2 nM and the “CRF2R Emax %” value is 93%. Also, in the assay with CRF1R, the “CRF1R EC50” value came out at 1000 nM and the “CRF1R Emax %” value was found to be 18%.
For ZGPPISIDLPFHLLRKMIEIEKQEKEKQQAANNALLLATI (C-terminal amide) [SEQ ID NO 229], in that order: 10.3 nM, 100%, 298 nM and 100%.
For ZGPPISIDLPQWLLRKMIEIEKQEKEKQQAANNRLLLDTI (C-terminal amide) [SEQ ID NO 213], in that order: 22.3 nM, 99%, 1000 nM and 76%.
In the case of ZGPPISIDLPFHLLRKMIEIEKQEKEKQQAANNALLLDTI (C-terminal amide) [SEQ ID NO 228], in the assay with CRF2R, the “CRF2R EC50” value came out at 7.1 nM and the “CRF2R Emax %” value was found to be 100%. In the assay with CRF1R, the “CRF1R EC50” value was 276 nM and the “CRF1R Emax %” value came out at 100%.
Turning to ZGPPISIDLPFYLLRKMIEIEKQEKEKQQAANNALLLATI (C-terminal amide) [SEQ ID NO 231], in the assay with CRF2R, the “CRF2R EC50” value was found to be 5.9 nM and the “CRF2R Emax %” value was found to be 100%. Also, in the assay with CRF1R, the “CRF1R EC50” value stood at 94 nM and the “CRF1R Emax %” value was 100%.
Take ZGPPISIDLPTYLLRKMIEIEKQEKEKQQAANNALLLDTI (C-terminal amide) [SEQ ID NO 232]: in the assay with CRF2R, the “CRF2R EC50” value worked out at 45.3 nM and the “CRF2R Emax %” value is 100%. Besides, in the assay with CRF1R, the “CRF1R EC50” value worked out at 1000 nM and the “CRF1R Emax %” value was found to be 7%.
The matching figures for ZGPPISIDLPFWLLRKMIEIEKQEKEKQQAANNRLLLDTI (C-terminal amide) [SEQ ID NO 217]: 4.7 nM, 95%, 94.7 nM and 100%.
As for ZGPPISIDLPAFLLRKMIEIEKQEKEKQQAANNRLLLDTI (C-terminal amide) [SEQ ID NO 222], in the assay with CRF2R, the “CRF2R EC50” value stood at 9.4 nM and the “CRF2R Emax %” value was 100%. Further, in the assay with CRF1R, the “CRF1R EC50” value came out at 384 nM and the “CRF1R Emax %” value turned out to be 95%.
As for ZGPPISIDLPQYLLRKMIEIEKQEKEKQQAANNALLLATI (C-terminal amide) [SEQ ID NO 227], in the assay with CRF2R, the “CRF2R EC50” value turned out to be 33.6 nM and the “CRF2R Emax %” value is 95%. Also, in the assay with CRF1R, the “CRF1R EC50” value worked out at 918 nM and the “CRF1R Emax %” value is 18%.
The matching figures for ZGPPISIDLPQYLLRKMIEIEKQEKEKQQAANNALLLDTI (C-terminal amide) [SEQ ID NO 224]: 26.9 nM, 100%, 1000 nM and 27%.
The matching figures for ZGPPISIDLPYYLLRKMIEIEKQEKEKQQAANNALLLDTI (C-terminal amide) [SEQ ID NO 226]: 7.6 nM, 100%, 315 nM and 95%.
The matching figures for DNPSLSIDVPFFLLRTLLELEKTQSQRERAEQNARIFARV-NH2 [SEQ ID NO 386]: 8.7 nM, 96%, 1000 nM and 78.2%.
DNPSLSIDVPLYLLRTLLELEKTQSQRERAEQNARIFARV-NH2 [SEQ ID NO 387]: in the assay with CRF2R, the “CRF2R EC50” value turned out to be 17.9 nM and the “CRF2R Emax %” value turned out to be 100%. In the assay with CRF1R, the “CRF1R EC50” value was determined as 1000 nM and the “CRF1R Emax %” value was 50.1%.
Turning to ZGPPISIDLPLHLLRKMIEIEKQEKEKQQATTNARLLDTV (C-terminal amide) [SEQ ID NO 238], in the assay with CRF2R, the “CRF2R EC50” value stood at 16.7 nM and the “CRF2R Emax %” value is 100%. In the assay with CRF1R, the “CRF1R EC50” value amounted to 753 nM and the “CRF1R Emax %” value was 88%.
For IVLSLDVVIGLLQILLEQARARAAREQATTNARILARV-NH2 [SEQ ID NO 214], in that order: 74.3 nM, 60%, 100 nM and 4%.
